Results reported in PMC7504066.

How the values were obtained:
[1] = biological target: Plasmodium vivax PLP synthase domain (Pdx1) (Plasmodium vivax); assay: dynamic light scattering; purified Pdx1 alone and SEC-purified Pdx complex in a quartz cuvette, Spectroscatter-301, 660 nm laser, 90° angle
[2] = biological target: Plasmodium vivax PLP synthase domain (Pdx1) (Plasmodium vivax); assay: SEC; each protein alone on a Superdex 200 26/60 column; peak fractions evaluated by PAGE
[3] = biological target: Plasmodium vivax PLP synthase domain (Pdx1) (Plasmodium vivax); assay: negative-stain electron microscopy; Pdx1 alone, 25-30 µg mL^-1 in 20 mM Tris pH 8.0, 200 mM NaCl, 5 mM MTG, 2% uranyl acetate
[4] = biological target: Plasmodium vivax PLP synthase domain (Pdx1) (Plasmodium vivax); assay: native gel or EMSA; native PAGE of the purified proteins and of the SEC-purified Pdx complex
[5] = biological target: Plasmodium vivax PLP synthase domain (Pdx1) (Plasmodium vivax); assay: SAXS; batch SAXS at EMBL beamline P12 (PETRA III), 293 K; Pdx1 and SEC-purified Pdx complex (mixed 1:1, overnight) at 1, 2 and 5 mg mL^-1; ab initio (GASBOR, P6) and rigid body (SASREF) models, SAXSMoW mass

Plasmodium vivax PLP synthase domain (Pdx1) (enzyme)
12: stoichiometry N [1] | stoichiometry N [2] | stoichiometry N [3] | stoichiometry N [4] | stoichiometry N [5]

Plasmodium vivax glutaminase domain (Pdx2) (enzyme)
12: stoichiometry N (Pdx2 per Pdx1 dodecamer (12:12)) [5]
